Target: β2-adrenergic receptor (β2AR) (human) (UniProt P07550)

cAMP formation (HitHunter cAMP assay) in β2AR-transfected HEK-293 cells, P4 alone 10^-9 to 10^-4 M, no isoproterenol: EC50: 210 nM
cAMP formation (HitHunter cAMP assay) in β2AR-transfected HEK-293 cells, P4 alone 10^-9 to 10^-4 M, no isoproterenol: increase in cAMP as percent of the maximum response to isoproterenol: < 20%
decrease of isoproterenol potency in the cAMP assay by 50 µM P4 in β2AR-transfected HEK-293 cells (pair interfered with: agonist-activated β2AR and endogenous Gαs): < 20 fold
reduction of the maximal isoproterenol-induced cAMP level by 50 µM P4 in β2AR-transfected HEK-293 cells (pair interfered with: agonist-activated β2AR and endogenous Gαs): 40%
Binder: AITTGGNTYYANSVKGRFTISRDNA [CDR2-NDP P4 (25-amino-acid nanobody-derived peptide from the CDR2 of Nb71)]

From PMC11048008
